Assay results taken from US20110184152A1.

Assays:
[1] = target: human serum albumin (human) (UniProt P02768); assay: SPR (BIAcore)
[2] = target: mouse serum albumin (mouse) (UniProt P07724); assay: SPR (Biacore), purified construct

Row | Kd [1] [nM] | koff [1] [s⁻¹] | kon [1] [M⁻¹ s⁻¹] | Kd [2] [nM] | Binder
1 | 51.6 | 0.0186 | 360000 |  | FabB-645dsFv (S3×G4S), Fv heavy mutation T100aA (bispecific antibody, part only; not given: anti-OX40 Fab and linkers, V domains shown, not shown: another chain or arm of the molecule; small tags and cut ends, Interchain disulfide between VH Cys44 and VL Cys100 (Kabat) of the dsFv) VH: EVQLLESGGGLVQPGGSLRLSCAVSGIDLSNYAINWVRQAPGKCLEWIGIIWASGTTFYATWAKGRFTISRDSTTVYLQMNSLRAEDTAVYYCARTVPGYSAAPYFDLWGQGTLVTVSS VL: DIVMTQSPSSVSASVGDRVTITCQSSPSVWSNFLSWYQQKPGKAPKLLIYEASKLTSGVPSRFKGSGSGTDFTLTISSLQPEDFATYYCGGGYSSISDTTFGCGTKVEIK
2 |  |  |  | 59.6 | FabB-648dsFv (2xG4S) (bispecific antibody, part only; not given: anti-OX40 Fab and linkers, V domains shown, not shown: another chain or arm of the molecule; a dimerising Fc or GST; small tags and cut ends, Engineered interchain disulphide between VH Cys44 and VL Cys100 (Kabat; linear position 103 of the VL).) VH: EVQLVESGGGLVQPGGSLRLSCAVSGFSLSRYAMTWVRQAPGKCLEWIGTITTGGNTNYANWAKGRFTISKDSTTVYLQMNSLRAEDTAVYYCARGGYVSYADATELSLWGQGTLVTVSS VL: DIVMTQSPSTLSASVGDRVTITCQASQSIGSRLAWYQQKPGKAPKLLIYYASTVASGVPSRFKGSGSGTEFTLTISSLQPDDFATYYCQSYDYSSSSSYAFGCGTKVEIK
